# T1: human OPGbp [143-317] (human, UniProt O14788 143-317)
# T1 construct: also called OPGL
# T1 sequence (looked up): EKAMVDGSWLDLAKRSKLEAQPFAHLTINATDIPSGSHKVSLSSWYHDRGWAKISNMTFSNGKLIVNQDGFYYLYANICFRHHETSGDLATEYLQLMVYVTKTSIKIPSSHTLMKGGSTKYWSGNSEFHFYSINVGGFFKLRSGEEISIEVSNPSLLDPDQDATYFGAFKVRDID
# Biological target: T1, human OPGbp [143-317]
# Test: SPR (BIAcore), immobilized OPGbp [143-317]
Kd [nM],koff [s⁻¹],kon [M⁻¹ s⁻¹],Binder
0.46,0.00312,6.85e+06,"“AT” antibody variant N98D (heavy chain CDR3) (antibody, name in Kabat numbering, V domains shown, not shown: human IgG1 CH1, hinge, CH2 and CH3) VH: QVQLVQSGAEVRKPGASVKVSCKASGYDFSNYAIHWVRQAPGQRLEWMGWINAGNGNTKFSQKFQGRITVTRDTAASTAYMELRSLRSEDTAVYYCARDSSDMVRGIIIAYYFDYWGQGTLVTVSS VL: EIVMTQSPSSLSASVGDRVTITCRASQSISRYLNWYQLKPGKAPRLLIYGASSLQSGVPSRFSGSGSGAEFTLTISSLQPEDIATYYCQHTRAFGQGTKVEIKR"
1.32,0.00359,2.72e+06,"“AT” antibody variant N98E (heavy chain CDR3) (antibody, name in Kabat numbering, V domains shown, not shown: human IgG1 CH1, hinge, CH2 and CH3) VH: QVQLVQSGAEVRKPGASVKVSCKASGYDFSNYAIHWVRQAPGQRLEWMGWINAGNGNTKFSQKFQGRITVTRDTAASTAYMELRSLRSEDTAVYYCARDSSEMVRGIIIAYYFDYWGQGTLVTVSS VL: EIVMTQSPSSLSASVGDRVTITCRASQSISRYLNWYQLKPGKAPRLLIYGASSLQSGVPSRFSGSGSGAEFTLTISSLQPEDIATYYCQHTRAFGQGTKVEIKR"

# Biological target: T1, human OPGbp [143-317]
# Test: SPR (BIAcore), immobilized OPGbp [143-317]
# Remark: another data set of the same source
Kd [nM],koff [s⁻¹],kon [M⁻¹ s⁻¹],Binder
1.53,0.00215,1.4e+06,"“AT” antibody variant S96N (heavy chain CDR3) (antibody, name in Kabat numbering, V domains shown, not shown: human IgG1 CH1, hinge, CH2 and CH3) VH: QVQLVQSGAEVRKPGASVKVSCKASGYDFSNYAIHWVRQAPGQRLEWMGWINAGNGNTKFSQKFQGRITVTRDTAASTAYMELRSLRSEDTAVYYCARDNSNMVRGIIIAYYFDYWGQGTLVTVSS VL: EIVMTQSPSSLSASVGDRVTITCRASQSISRYLNWYQLKPGKAPRLLIYGASSLQSGVPSRFSGSGSGAEFTLTISSLQPEDIATYYCQHTRAFGQGTKVEIKR"
0.51,0.00118,2.28e+06,"“AT” antibody variant S96D (heavy chain CDR3) (antibody, name in Kabat numbering, V domains shown, not shown: human IgG1 CH1, hinge, CH2 and CH3) VH: QVQLVQSGAEVRKPGASVKVSCKASGYDFSNYAIHWVRQAPGQRLEWMGWINAGNGNTKFSQKFQGRITVTRDTAASTAYMELRSLRSEDTAVYYCARDDSNMVRGIIIAYYFDYWGQGTLVTVSS VL: EIVMTQSPSSLSASVGDRVTITCRASQSISRYLNWYQLKPGKAPRLLIYGASSLQSGVPSRFSGSGSGAEFTLTISSLQPEDIATYYCQHTRAFGQGTKVEIKR"
3.85,0.015,3.87e+06,"“AT” antibody variant S96G (heavy chain CDR3) (antibody, name in Kabat numbering, V domains shown, not shown: human IgG1 CH1, hinge, CH2 and CH3) VH: QVQLVQSGAEVRKPGASVKVSCKASGYDFSNYAIHWVRQAPGQRLEWMGWINAGNGNTKFSQKFQGRITVTRDTAASTAYMELRSLRSEDTAVYYCARDGSNMVRGIIIAYYFDYWGQGTLVTVSS VL: EIVMTQSPSSLSASVGDRVTITCRASQSISRYLNWYQLKPGKAPRLLIYGASSLQSGVPSRFSGSGSGAEFTLTISSLQPEDIATYYCQHTRAFGQGTKVEIKR"
1.86,0.00764,4.12e+06,"“AT” antibody variant S96H (heavy chain CDR3) (antibody, name in Kabat numbering, V domains shown, not shown: human IgG1 CH1, hinge, CH2 and CH3) VH: QVQLVQSGAEVRKPGASVKVSCKASGYDFSNYAIHWVRQAPGQRLEWMGWINAGNGNTKFSQKFQGRITVTRDTAASTAYMELRSLRSEDTAVYYCARDHSNMVRGIIIAYYFDYWGQGTLVTVSS VL: EIVMTQSPSSLSASVGDRVTITCRASQSISRYLNWYQLKPGKAPRLLIYGASSLQSGVPSRFSGSGSGAEFTLTISSLQPEDIATYYCQHTRAFGQGTKVEIKR"
0.67,0.00185,2.75e+06,"“AT” antibody variant S96Y (heavy chain CDR3) (antibody, name in Kabat numbering, V domains shown, not shown: human IgG1 CH1, hinge, CH2 and CH3) VH: QVQLVQSGAEVRKPGASVKVSCKASGYDFSNYAIHWVRQAPGQRLEWMGWINAGNGNTKFSQKFQGRITVTRDTAASTAYMELRSLRSEDTAVYYCARDYSNMVRGIIIAYYFDYWGQGTLVTVSS VL: EIVMTQSPSSLSASVGDRVTITCRASQSISRYLNWYQLKPGKAPRLLIYGASSLQSGVPSRFSGSGSGAEFTLTISSLQPEDIATYYCQHTRAFGQGTKVEIKR"
0.3,0.00175,5.84e+06,"“AT” antibody variant S96L (heavy chain CDR3) (antibody, name in Kabat numbering, V domains shown, not shown: human IgG1 CH1, hinge, CH2 and CH3) VH: QVQLVQSGAEVRKPGASVKVSCKASGYDFSNYAIHWVRQAPGQRLEWMGWINAGNGNTKFSQKFQGRITVTRDTAASTAYMELRSLRSEDTAVYYCARDLSNMVRGIIIAYYFDYWGQGTLVTVSS VL: EIVMTQSPSSLSASVGDRVTITCRASQSISRYLNWYQLKPGKAPRLLIYGASSLQSGVPSRFSGSGSGAEFTLTISSLQPEDIATYYCQHTRAFGQGTKVEIKR"
0.53,0.00167,3.14e+06,"“AT” antibody variant S96T (heavy chain CDR3) (antibody, name in Kabat numbering, V domains shown, not shown: human IgG1 CH1, hinge, CH2 and CH3) VH: QVQLVQSGAEVRKPGASVKVSCKASGYDFSNYAIHWVRQAPGQRLEWMGWINAGNGNTKFSQKFQGRITVTRDTAASTAYMELRSLRSEDTAVYYCARDTSNMVRGIIIAYYFDYWGQGTLVTVSS VL: EIVMTQSPSSLSASVGDRVTITCRASQSISRYLNWYQLKPGKAPRLLIYGASSLQSGVPSRFSGSGSGAEFTLTISSLQPEDIATYYCQHTRAFGQGTKVEIKR"
2.25,0.0121,5.37e+06,"“AT” antibody variant S96V (heavy chain CDR3) (antibody, name in Kabat numbering, V domains shown, not shown: human IgG1 CH1, hinge, CH2 and CH3) VH: QVQLVQSGAEVRKPGASVKVSCKASGYDFSNYAIHWVRQAPGQRLEWMGWINAGNGNTKFSQKFQGRITVTRDTAASTAYMELRSLRSEDTAVYYCARDVSNMVRGIIIAYYFDYWGQGTLVTVSS VL: EIVMTQSPSSLSASVGDRVTITCRASQSISRYLNWYQLKPGKAPRLLIYGASSLQSGVPSRFSGSGSGAEFTLTISSLQPEDIATYYCQHTRAFGQGTKVEIKR"
0.35,0.000901,2.54e+06,"“AT” antibody variant S96E (heavy chain CDR3) (antibody, name in Kabat numbering, V domains shown, not shown: human IgG1 CH1, hinge, CH2 and CH3) VH: QVQLVQSGAEVRKPGASVKVSCKASGYDFSNYAIHWVRQAPGQRLEWMGWINAGNGNTKFSQKFQGRITVTRDTAASTAYMELRSLRSEDTAVYYCARDESNMVRGIIIAYYFDYWGQGTLVTVSS VL: EIVMTQSPSSLSASVGDRVTITCRASQSISRYLNWYQLKPGKAPRLLIYGASSLQSGVPSRFSGSGSGAEFTLTISSLQPEDIATYYCQHTRAFGQGTKVEIKR"
1.56,0.00466,2.99e+06,"“AT” antibody variant S96I (heavy chain CDR3) (antibody, name in Kabat numbering, V domains shown, not shown: human IgG1 CH1, hinge, CH2 and CH3) VH: QVQLVQSGAEVRKPGASVKVSCKASGYDFSNYAIHWVRQAPGQRLEWMGWINAGNGNTKFSQKFQGRITVTRDTAASTAYMELRSLRSEDTAVYYCARDISNMVRGIIIAYYFDYWGQGTLVTVSS VL: EIVMTQSPSSLSASVGDRVTITCRASQSISRYLNWYQLKPGKAPRLLIYGASSLQSGVPSRFSGSGSGAEFTLTISSLQPEDIATYYCQHTRAFGQGTKVEIKR"
2.43,0.0087,3.57e+06,"“AT” antibody variant S96M (heavy chain CDR3) (antibody, name in Kabat numbering, V domains shown, not shown: human IgG1 CH1, hinge, CH2 and CH3) VH: QVQLVQSGAEVRKPGASVKVSCKASGYDFSNYAIHWVRQAPGQRLEWMGWINAGNGNTKFSQKFQGRITVTRDTAASTAYMELRSLRSEDTAVYYCARDMSNMVRGIIIAYYFDYWGQGTLVTVSS VL: EIVMTQSPSSLSASVGDRVTITCRASQSISRYLNWYQLKPGKAPRLLIYGASSLQSGVPSRFSGSGSGAEFTLTISSLQPEDIATYYCQHTRAFGQGTKVEIKR"
3.09,0.00359,1.16e+06,"“AT” antibody variant S96Q (heavy chain CDR3) (antibody, name in Kabat numbering, V domains shown, not shown: human IgG1 CH1, hinge, CH2 and CH3) VH: QVQLVQSGAEVRKPGASVKVSCKASGYDFSNYAIHWVRQAPGQRLEWMGWINAGNGNTKFSQKFQGRITVTRDTAASTAYMELRSLRSEDTAVYYCARDQSNMVRGIIIAYYFDYWGQGTLVTVSS VL: EIVMTQSPSSLSASVGDRVTITCRASQSISRYLNWYQLKPGKAPRLLIYGASSLQSGVPSRFSGSGSGAEFTLTISSLQPEDIATYYCQHTRAFGQGTKVEIKR"
8.45,0.00268,317000,"“AT” antibody variant S96F (heavy chain CDR3) (antibody, name in Kabat numbering, V domains shown, not shown: human IgG1 CH1, hinge, CH2 and CH3) VH: QVQLVQSGAEVRKPGASVKVSCKASGYDFSNYAIHWVRQAPGQRLEWMGWINAGNGNTKFSQKFQGRITVTRDTAASTAYMELRSLRSEDTAVYYCARDFSNMVRGIIIAYYFDYWGQGTLVTVSS VL: EIVMTQSPSSLSASVGDRVTITCRASQSISRYLNWYQLKPGKAPRLLIYGASSLQSGVPSRFSGSGSGAEFTLTISSLQPEDIATYYCQHTRAFGQGTKVEIKR"
1.26,0.00203,1.61e+06,"“AT” antibody variant S96W (heavy chain CDR3) (antibody, name in Kabat numbering, V domains shown, not shown: human IgG1 CH1, hinge, CH2 and CH3) VH: QVQLVQSGAEVRKPGASVKVSCKASGYDFSNYAIHWVRQAPGQRLEWMGWINAGNGNTKFSQKFQGRITVTRDTAASTAYMELRSLRSEDTAVYYCARDWSNMVRGIIIAYYFDYWGQGTLVTVSS VL: EIVMTQSPSSLSASVGDRVTITCRASQSISRYLNWYQLKPGKAPRLLIYGASSLQSGVPSRFSGSGSGAEFTLTISSLQPEDIATYYCQHTRAFGQGTKVEIKR"
0.31,0.00141,4.55e+06,"“AT” antibody variant S96K (heavy chain CDR3) (antibody, name in Kabat numbering, V domains shown, not shown: human IgG1 CH1, hinge, CH2 and CH3) VH: QVQLVQSGAEVRKPGASVKVSCKASGYDFSNYAIHWVRQAPGQRLEWMGWINAGNGNTKFSQKFQGRITVTRDTAASTAYMELRSLRSEDTAVYYCARDKSNMVRGIIIAYYFDYWGQGTLVTVSS VL: EIVMTQSPSSLSASVGDRVTITCRASQSISRYLNWYQLKPGKAPRLLIYGASSLQSGVPSRFSGSGSGAEFTLTISSLQPEDIATYYCQHTRAFGQGTKVEIKR"
0.38,0.00262,6.97e+06,"“AT” antibody variant S96R (heavy chain CDR3) (antibody, name in Kabat numbering, V domains shown, not shown: human IgG1 CH1, hinge, CH2 and CH3) VH: QVQLVQSGAEVRKPGASVKVSCKASGYDFSNYAIHWVRQAPGQRLEWMGWINAGNGNTKFSQKFQGRITVTRDTAASTAYMELRSLRSEDTAVYYCARDRSNMVRGIIIAYYFDYWGQGTLVTVSS VL: EIVMTQSPSSLSASVGDRVTITCRASQSISRYLNWYQLKPGKAPRLLIYGASSLQSGVPSRFSGSGSGAEFTLTISSLQPEDIATYYCQHTRAFGQGTKVEIKR"
1.29,0.00188,1.45e+06,"“AT” antibody variant S96P (heavy chain CDR3) (antibody, name in Kabat numbering, V domains shown, not shown: human IgG1 CH1, hinge, CH2 and CH3) VH: QVQLVQSGAEVRKPGASVKVSCKASGYDFSNYAIHWVRQAPGQRLEWMGWINAGNGNTKFSQKFQGRITVTRDTAASTAYMELRSLRSEDTAVYYCARDPSNMVRGIIIAYYFDYWGQGTLVTVSS VL: EIVMTQSPSSLSASVGDRVTITCRASQSISRYLNWYQLKPGKAPRLLIYGASSLQSGVPSRFSGSGSGAEFTLTISSLQPEDIATYYCQHTRAFGQGTKVEIKR"
